Laboratory results published in patent US20240261333A1, “NOVEL TARGETS FOR ENHANCING ANTI-TUMOR IMMUNITY” (THE BROAD INSTITUTE, INC., priority 2021, published 2024).

T1: B3GNT2 (Homo sapiens, UniProt Q9NY97)
T1 construct: The respective ORFs of candidate genes [CD274 (NM_014143), MCL1 (NM_021960), JUNB (NM_002229), and B3GNT2 (NM_006577)] were synthesized; expressed in transfected cells; host or cells: A375 melanoma cells (lentiviral ORF overexpression)
T1 sequence (Q9NY97 1-397): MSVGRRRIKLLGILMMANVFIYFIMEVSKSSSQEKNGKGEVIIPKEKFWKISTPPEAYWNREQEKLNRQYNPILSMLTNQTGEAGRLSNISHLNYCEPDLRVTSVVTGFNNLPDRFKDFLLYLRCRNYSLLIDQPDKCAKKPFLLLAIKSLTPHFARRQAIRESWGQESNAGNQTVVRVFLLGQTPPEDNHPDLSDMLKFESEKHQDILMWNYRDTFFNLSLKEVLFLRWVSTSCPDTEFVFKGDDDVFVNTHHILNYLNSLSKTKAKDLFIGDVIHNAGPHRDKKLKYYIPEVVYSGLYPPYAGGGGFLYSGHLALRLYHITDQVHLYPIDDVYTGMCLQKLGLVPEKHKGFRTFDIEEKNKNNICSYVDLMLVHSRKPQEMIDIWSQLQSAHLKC

B1: CD70 (protein)
chain: MPEEGSGCSVRRRPYGCVLRAALVPLVAGLVICLVVCIQRFAQAQQQLPLESLGWDVAELQLNHTGPQQDPRLYWQGGPALGRSFLHGPELDKGQLRIHRDGIYMVHIQVTLAICSSTTASRHHPTTLAVGICSPASRSISLLRLSFHQGCTIASQRLTPLARGDTLCTNLTGTLLPSRNTDETFFGVQWVRP
B2: MAGT1 (protein)
chain: QRKKEMVLSEKVSQLMEWTNKRPVIRMNGDKFRRLVKAPPRNYSVIVMFTALQLHRQCVVCKQADEEFQILANSWRYSSAFTNRIFFAMVDFDEGSDVFQMLNMNSAPTFINFPAKGKPKRGDTYELQVRGFSAEQIARWIADRTDVNIRVIRPPNYAGPLMLGLLLAVIGGLVYLRRSNMEFLFNKTGWAFAALCFVLAMTSGQMWNHIRGPPYAHKNPHTGHVNYIHGSSQAQFVAETHIVLLFNGGVTLGMVLLCEAATSDMDIGKRKIMCVAGIGLVVLFFSWMLSIFRSKYHGYPYSFLMS
B3: ARHGEF2 (protein, UniProt Q92974 1-986, looked up)
Rho guanine nucleotide …: MSRIESLTRARIDRSRELASKTREKEKMKEAKDARYTNGHLFTTISVSGMTMCYACNKSITAKEALICPTCNVTIHNRCKDTLANCTKVKQKQQKAALLKNNTALQSVSLRSKTTIRERPSSAIYPSDSFRQSLLGSRRGRSSLSLAKSVSTTNIAGHFNDESPLGLRRILSQSTDSLNMRNRTLSVESLIDEAEVIYSELMSDFEMDEKDFAADSWSLAVDSSFLQQHKKEVMKQQDVIYELIQTELHHVRTLKIMTRLFRTGMLEELHLEPGVVQGLFPCVDELSDIHTRFLSQLLERRRQALCPGSTRNFVIHRLGDLLISQFSGPSAEQMCKTYSEFCSRHSKALKLYKELYARDKRFQQFIRKVTRPAVLKRHGVQECILLVTQRITKYPLLISRILQHSHGIEEERQDLTTALGLVKELLSNVDEGIYQLEKGARLQEIYNRMDPRAQTPVPGKGPFGREELLRRKLIHDGCLLWKTATGRFKDVLVLLMTDVLVFLQEKDQKYIFPTLDKPSVVSLQNLIVRDIANQEKGMFLISAAPPEMYEVHTASRDDRSTWIRVIQQSVRTCPSREDFPLIETEDEAYLRRIKMELQQKDRALVELLREKVGLFAEMTHFQAEEDGGSGMALPTLPRGLFRSESLESPRGERLLQDAIREVEGLKDLLVGPGVELLLTPREPALPLEPDSGGNTSPGVTANGEARTFNGSIELCRADSDSSQRDRNGNQLRSPQEEALQRLVNLYGLLHGLQAAVAQQDTLMEARFPEGPERREKLCRANSRDGEAGRAGAAPVAPEKQATELALLQRQHALLQEELRRCRRLGEERATEAGSLEARLRESEQARALLEREAEEARRQLAALGQTEPLPAEAPWARRPVDPRRRSLPAGDALYLSFNPPQPSRGTDRLDLPVTTRSVHRNFEDRERQELGSPEERLQDSSDPDTGSEEEGSSRLSPPHSPRDFTRMQDIPEETESRDGEAVASES
B4: SPRR1A (protein)
chain: MNSQQQKQPCTPPPQPQQQQVKQPCQPPPQEPCIPKTKEPCHPKVPEPCHPKVPEPCQPKVPEPCQPKVPEPCPSTVTPAPAQQKTKQK
B5: HSPD1 (protein)
chain: AKDVKFGADARALMLQGVDLLADAVAVTMGPKGRTVIIEQSWGSPKVTKDGVTVAKSIDLKDKYKNIGAKLVQDVANNTNEEAGDGTTTATVLARSIAKEGFEKISKGANPVEIRRGVMLAVDAVIAELKKQSKPVTTPEEIAQVATISANGDKEIGNIISDAMKKVGRKGVITVKDGKTLNDELEIIEGMKFDRGYISPYFINTSKGQKCEFQDAYVLLSEKKISSIQSIVPALEIANAHRKPLVIIAEDVDGEALSTLVLNRLKVGLQVVAVKAPGFGDNRKNQLKDMAIATGGAVFGEEGLTLNLEDVQPHDLGKVGEVIVTKDDAMLLKGKGDKAQIEKRIQEIIEQLDVTTSEYEKEKLNERLAKLSDGVAVLKVGGTSDVEVNEKKDRVTDALNATRAAVEEGIVLGGGCALLRCIPALDSLTPANEDQKIGIEIIKRTLKIPAMTIAKNAGVEGSLIVEKIMQSSSEVGYDAMAGDFVNMVEKGIIDPTKVVRTALLDAAGVASLLTTAEVVVTEIPKEEKDPGMGAMGGMGGGMGGGMF
B6: MSN (protein)
chain: PKTISVRVTTMDAELEFAIQPNTTGKQLFDQVVKTIGLREVWFFGLQYQDTKGFSTWLKLNKKVTAQDVRKESPLLFKFRAKFYPEDVSEELIQDITQRLFFLQVKEGILNDDIYCPPETAVLLASYAVQSKYGDFNKEVHKSGYLAGDKLLPQRVLEQHKLNKDQWEERIQVWHEEHRGMLREDAVLEYLKIAQDLEMYGVNYFSIKNKKGSELWLGVDALGLNIYEQNDRLTPKIGFPWSEIRNISFNDKKFVIKPIDKKAPDFVFYAPRLRINKRILALCMGNHELYMRRRKPDTIEVQQMKAQAREEKHQKQMERAMLENEKKKREMAEKEKEKIEREKEELMERLKQIEEQTKKAQQELEEQTRRALELEQERKRAQSEAEKLAKERQEAEEAKEALLQASRDQKKTQEQLALEMAELTARISQLEMARQKKESEAVEWQQKAQMVQEDLEKTRAELKTAMSTPHVAEPAENEQDEQDENGAEASADLRADAMAKDRSEEERTTEAEKNERVQKHLKALTSELANARDESKKTANDMIHAENMRLGRDKYKTLRQIRQGNTKQRIDEFESM
B7: SLC25A5 (protein)
chain: TDAAVSFAKDFLAGGVAAAISKTAVAPIERVKLLLQVQHASKQITADKQYKGIIDCVVRIPKEQGVLSFWRGNLANVIRYFPTQALNFAFKDKYKQIFLGGVDKRTQFWLYFAGNLASGGAAGATSLCFVYPLDFARTRLAADVGKAGAEREFRGLGDCLVKIYKSDGIKGLYQGFNVSVQGIIIYRAAYFGIYDTAKGMLPDPKNTHIVISWMIAQTVTAVAGLTSYPFDTVRRRMMMQSGRKGTDIMYTGTLDCWRKIARDEGGKAFFKGAWSNVLRGMGGAFVLVLYDEIKKYT
B8: CCT7 (protein)
chain: MDKLIVDGRGKATISNDGATILKLLDVVHPAAKTLVDIAKSQDAEVGDGTTSVTLLAAEFLKQVKPYVEEGLHPQIIIRAFRTATQLAVNKIKEIAVTVKKADKVEQRKLLEKCAMTALSSKLISQQKAFFAKMVVDAVMMLDDLLQLKMIGIKKVQGGALEDSQLVAGVAFKKTFSYAGFEMQPKKYHNPKIALLNVELELKAEKDNAEIRVHTVEDYQAIVDAEWNILYDKLEKIHHSGAKVVLSKLPIGDVATQYFADRDMFCAGRVPEEDLKRTMMACGGSIQTSVNALSADVLGRCQVFEETQIGGERYNFFTGCPKAKTCTFILRGGAEQFMEETERSLHDAIMIVRRAIKNDSVVAGGGAIEMELSKYLRDYSRTIPGKQQLLIGAYAKALEIIPRQLCDNAGFDATNILNKLRARHAQGGTWYGVDINNEDIADNFEAFVWEPAMVRINALTAASEAACLIVSVDETIKNPRSTVDAPTAAGRGRGRGRPH
B9: MARS (protein)
chain: MRLFVSDGVPGCLPVLAAAGRARGRAEVLISTVGPEDCVVPFLTRPKVPVLQLDSGNYLFSTSAICRYFFLLSGWEQDDLTNQWLEWEATELQPALSAALYYLVVQGKKGEDVLGSVRRALTHIDHSLSRQNCPFLAGETESLADIVLWGALYPLLQDPAYLPEELSALHSWFQTLSTQEPCQRAAETVLKQQGVLALRPYLQKQPQPSPAEGRAVTNEPEEEELATLSEEEIAMAVTAWEKGLESLPPLRPQQNPVLPVAGERNVLITSALPYVNNVPHLGNIIGCVLSADVFARYSRLRQWNTLYLCGTDEYGTATETKALEEGLTPQEICDKYHIIHADIYRWFNISFDIFGRTTTPQQTKITQDIFQQLLKRGFVLQDTVEQLRCEHCARFLADRFVEGVCPFCGYEEARGDQCDKCGKLINAVELKKPQCKVCRSCPVVQSSQHLFLDLPKLEKRLEEWLGRTLPGSDWTPNAQFITRSWLRDGLKPRCITRDLKWGTPVPLEGFEDKVFYVWFDATIGYLSITANYTDQWERWWKNPEQVDLYQFMAKDNVPFHSLVFPCSALGAEDNYTLVSHLIATEYLNYEDGKFSKSRGVGVFGDMAQDTGIPADIWRFYLLYIRPEGQDSAFSWTDLLLKNNSELLNNLGNFINRAGMFVSKFFGGYVPEMVLTPDDQRLLAHVTLELQHYHQLLEKVRIRDALRSILTISRHGNQYIQVNEPWKRIKGSEADRQRAGTVTGLAVNIAALLSVMLQPYMPTVSATIQAQLQLPPPACSILLTNFLCTLPAGHQIGTVSPLFQKLENDQIESLRQRFGGGQAKTSPKPAVVETVTTAKPQQIQALMDEVTKQGNIVRELKAQKADKNEVAAEVAKLLDLKKQLAVAEGKPPEAPKGKKKK

Biological target: T1, B3GNT2
Test: Co-IP of FLAG-tagged B3GNT2 followed by mass spectrometry
Type: cell-based
Design: C-term IgG / C-term flag: unit not given here
Settings: mass spectrometry count, unit not given; for C-term flag / N-term FLAG: Co-IP with FLAG antibody; for C-term flag / C-term IgG: C-terminally FLAG-tagged B3GNT2; for N-term FLAG / N-term IgG: N-terminally FLAG-tagged B3GNT2; for C-term IgG / N-term IgG: Co-IP with IgG control antibody
Summary of the method: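 Co-purifying proteins were identified by fractionated nano-LC–MS/MS on an Orbitrap Elite, run data-dependent. Beforehand, lysates in 1% Triton X-100/HEPES buffer were incubated overnight at 4° C with anti-FLAG or […] and pulled down on Protein A/G magnetic beads for 4 h. Duplicate biological replicates.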

| Molecule | C-term flag | N-term FLAG | C-term IgG | N-term IgG |
| --- | --- | --- | --- | --- |
| B1 | 2 | 0 | 0 | 0 |
| B2 | 2 | 0 | 0 | 0 |
| B3 | 2 | 0 | 0 | 0 |
| B4 | 3 | 4 | 0 | 0 |
| B5 | 6 | 10 | 2 | 0 |
| B6 | 4 | 3 | 0 | 0 |
| B7 | 30 | 19 | 3 | 6 |
| B8 | 2 | 0 | 0 | 0 |
| B9 | 0 | 2 | 0 | 0 |
